Measured values reported in the nanobody polyreactivity screen of Harvey et al. (2022).

Test: yeast display, Sf9 membrane polyspecificity reagent, FACS + sequencing; frameworks hold sequencing errors
Method in brief: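 Genes from sorted yeast were amplified by colony PCR, read by MiSeq 2 × 250 sequencing and filtered on CDR length. These cells carried a synthetic nanobody library in Saccharomyces cerevisiae BJ5465 and were sorted by FACS into low and high (top ~1%) gates on anti-HA and streptavidin fluorescence. Polyreactivity is labelled according to the gate of origin.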

Sequence	polyreactivity (PSR sort gate)
QVQLVESGGGLVQAGGSLRLSCAASGFTFAYNAMGWYRQAPGKERELVAAISSSGGRTYYADSVKGRFTISRDNAKNTVYLQMNSLKPEDTAVYDCATRPKVAYEYDYWGQGTQVTVSS	high polyreactivity
QVQVVESGGGLVQAGGSLGLSCAASGSTFTRNAMGWYRQAPGKERELVAAITSSGGSTYYADSVKGRFTISRDNAKNTVYLLMNSLKPEDTAVYYCAAYVRPSYFGWMDYWGQGTQVTVSS	low polyreactivity
QVQLVESGGGLVQAGGSLRLSCAASGRTFRGYVMGWYRQAPGKERELVAAISKSGGSTYYADSVKGRFTISRDNAKNTVYLQMNSLKPEDTAVYYCAKNYRYYVFYDGFDYWGQGTQVTVSS	low polyreactivity
QVQLVESGGGLVQAGASLRLSCAPSGRIFGPNTMGWSRQAPGKEREVVAAITRRGGSTYYADSVKGRFTISRDNAKNTVYLQMNSLKPEDTAVYYCAAVGQKRSLGFSWGQGTQVTVSS	low polyreactivity
QGQLVESGGGLVQAGGSLRISSAASGGNFPGNTMGWYRLAPGKESELVAAISNGVSTNYADSVKGGFTISRDNAKNTVYLQMNSQKPEDTAVYYCAAEWSWWDGEDYHFEYDYWGQGTQVTVSS	low polyreactivity
QVQLVESGGGLVQAGGSLRLSCAASGFTFRVYAMGGYRPAPGKERELVAAITSGSSTTYADSVKGRFTISRDNAKNTVYLQMNSLKPEDTAVYYCNARRRGRVTGSYGYWGQGTQVTVSS	high polyreactivity
QVQLVESGGGLVQAGGSLRLSCAASGFTFDKYAMGWYRQAPGKERELVAAITQNGGSTNYADSVKGRFTISRDNAKNTVYLQMNSLKPEDTAVYYCATRSSYLSYVSRMYYWGQGTQVTVSS	high polyreactivity
QVQLVESGGGLVQAGGSLRLSCPASGSTFYEYAMGWYRQEPGKERELVAAITSGGSTYYADSVKGRFTISRDNAKYTVYLQLNSQKPEDTAVYYCAADPRIRRGDRSTHGYDYWGQGTQVTVSS	low polyreactivity
QVQLVESGGGLVQAGGSLRLSCAASGSIFIVYAMGWYRQAPGKERELVATITSGGSTNYADSVKGRFTISRDNAKNTVYLQMNSLKPEDTAVYYCAAESYWGSGVVPGYDYWGQGTQVTVSS	low polyreactivity
QLQLVESGGGLVQAGGSLRLSCAASGSTFRWYAKGWYRQAPGKERELVAAISYSGGRTYYADSVKGRFTISRDTAKNTVYLQMNSLKPEDTAVYYCAADYVESKSLLEYWGQGTQVTVSS	low polyreactivity
QVQLVESGGGLLQAGVTLRLSCAPSGFTQDSYSMGWYRQAPGKERELVARIRWSGGSTYYADSVKGRFTISRDNAKNTVYLQMNSLKPEDKAVYYCAADRPYYFLPYSTYTNYDSWGQGTQVTVSS	low polyreactivity
QVQIVESGGGLVQAGGSLRLSCAASGSIFGANDMGWYRQAPGKERELVAAISTRGGRTYYADSVKGRFTISRDNEMNTVYLHMNSLKPEDTAVYYCDTSGGRPYKYEYWGQGTQVTVSS	high polyreactivity
QVQLVESGGGLVQAGGSLRLICAASGRTFENYAMGWYRQAPGKERELVAAISKSGGSTYYADSVKGRFTISRDNAKNPVYLQMNSLKPEDTAVYYCNARPGQSGARFGYWGQGTQVTVSS	high polyreactivity
QVQLVESGGGLVQAGGSLRLSCAASGFIFSGYNMGWYRQAPGKERELVAAITKRGGRTYYADSVKWRFTISRDNAKNTVYLQMNSLKPEDTAVYYCNVDVKVYSDETTDGDYWGQGTQVTVSS	high polyreactivity
QVQLVESGGGLVQAGGSLRLSCAASGSIFYINAMGCYRQAPGKEREMVAAITSDGSTYYADSVKGRFTISRDNAKNTVYLQMNSLNPEDTAVYYCAADLTSDQYMYYWYWFYSWGQGTQVPVSS	low polyreactivity
QVQLVESGGGLVQAGGSLRLSCAASGSIFRVYAMGWYRQAPGKEREFVAAITRRGTRTYYADSVKGRFTISRDNAKNTDYLQMNSLKPEDTAVYYCAAYFTDGLYEYWGQGTQVTVSS	low polyreactivity

Sequence	polyreactivity (PSR sort gate)
QVQLVESGGGLVQAGGSLRLSCAASGLTYANAKGWYRQAPGKERELVATIRYSGGSTYYADSVKGRFTISRDNAKNTVYLQMNSLKPEDTAVYYCAARRTAGYRSGEYDYWGQGTQVTVSS	high polyreactivity
QVQLVESGGGLVQAGGSLRLSCAASGRTSAWYAMGWYRQAPGKERDLVATISYTGGRTYYADSVKGRFTISRDNAKNTVYLQMNSLKPEDTAVYYCAKRYTSWFSSKFDYWGQGTQVTVSS	high polyreactivity
QVQLVESGGGLVQAGGSLRLSCPASGFIFQHYAMGWYRQAPGKERELVAAIDFTDGSTYYADSVKGRFTISRDNAKNTVYLQMNSLKPEDTAVYYCNALDYLYGGIYLDEDYWGQGTQVTVSS	low polyreactivity
QVQLAESGGGLVQAGGSLRLSCAASGSILFNMGWYRQAPGKERELVAAIRYGGGRTYYADSVKGRFTISRDNAKNTVYLQMNSLKPEDTAVYYCAAPYKRNAGFDYWGQGTQVTVSS	low polyreactivity
QVQLVESGGGLFQAGGSLRLSCAASGSIFTKYAMGWYRQAPGKERELVAAISQGGASTRYADSVKGRFTISRDNAKKTVYLQMNSLKPEDTAVYYCAAKSRHFWMDYWGQATQVTVSS	high polyreactivity
QVQLVESGGGLVQAGGSLRLSCAASGFNFPYYAMGWYRQAPGKERALVAAIRISGGSTYYADSVKGRFTISRDNAKNTVYLQMNSLKPEDTAVYYCAADYRYRSRFYYWGQGTQVTVSS	low polyreactivity
QVQLVESGGGLVQAGGSLRLSCAASGLIFGPYAMGWYRQAPGKERELLAASWRGGSTYYADSVKGRFTISRDNAKNTVFLQMNSLKPEDTAVYYCAADVIYSLYYYWGQGTQVTVSS	low polyreactivity
QVQLVESGGGLVQAGGSLRLSCAASGSTSPGYAMGWYRLEPGKERELVAAITFRGTRTYYADSVKGRFTISRDNAKKTVYLLMNSLKPEDTAVYYCNVVGYGPNRGRVDYWGQGTQVTVSS	high polyreactivity
QFQLVESGGGLVQAGGSLRLSCAASGRTFYVNAMGWYRPSPGKERELVAGISFSDGSTYYADSVKGRFTISRDNAKNTVYLQMNSLKPEDTAVYYCATVGAFDIYYGYGYWGQGTQVTVSS	low polyreactivity
QVQLVESGGGLVQAGGSLRLSCAASGSTFEYYAMGSYRQAPGKERELVATISIDGRTNYADSVKGRFTISRDNAKNTVYLQMNSLKPEDTAVYYCAARPYWRQRYDYWGQGTQVTVSS	low polyreactivity
QVQLVESGGGLVQAGGSLRLSCAASGSTFYLYAMGWYRQAPGKERELVASITYSGASTYYADSVKGRFTISRDNAKNTVYLQMNSLKPEDTAVYYCAADQRGWFAVGSQRKYNYWGQGTQVTVSS	low polyreactivity
QVQLVESGGGLVQAGGSLRLSCAASGRIFYYNDMGWYRQAPGKERELVAAITWTDDGTYYADSVKGRFTISRDNAKNTVYLQMNSLKPEDTAVYYCAAESFYGFEYWGQGTQVTVSS	low polyreactivity
QDQLVESGGGLVQAGGSLRLSCAASGFIFYSNAMGWYRQEPGKERELVAAITSGGGSTYYADSVKGRFTISRDTAKNTVYLQMNSLKPEDTAVDYCAVSIGRYPYRYGYWGQGTQVTVSS	high polyreactivity
QVQLVESGGGLVQAGGSLRLSCAASGRTFKPYAMGWYRQARGKERELVAAISTRGGSTYYADSVKGRFTISRDNAKNTVYLQMNSLKPEDTAVYYCAATQPGRDYDYWGQGTQVTVSS	low polyreactivity
QVQLVESGGGLVQAGGSLRLSCAASGRTFSRYAMGWYRQAPGKERELVAAISKSSGTTSYADSVKGRFTISRDNAKNTVYLQMKSQKPEDTAVYYCAAGITGRYYGVRFSEDYWGQGTQVTVSS	high polyreactivity
QVQLVESGGGLVQAGGSLRLSCAASGSTFYSYAMGWYRQAPGKERELVAAITIISGSTYYADSVKGRFTISRDNAKNTVYLQMNSLKPEDTAVYYCAADSYYSFVPLDEYWGQGTQVTVSS	high polyreactivity
